Data as given in the supplement of paper PMC9112550, “Optimization of the antimicrobial peptide Bac7 by deep mutational scanning” (BMC Biology, 2022).

system: Escherichia coli TOP10; experiment: shrunken log2 fold change of peptide-encoding DNA abundance (4.5 h post-induction vs induction); higher = less antimicrobial activity (less host growth inhibition); details: time post-induction: 4.5 h; library: site-saturation at positions 5, 18, 19, 20
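Further: peptides expressed intracellularly from a pBAD plasmid library in pooled LB shake-flask culture, induced with 0.3% L-arabinose, DNA abundance read by NGS, three biological replicates, DESeq2 with apeglm shrinkage.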

Sequence | shrunken log2 fold change
RRIRCRPPRLPRPRPRPLNMPRP | -0.646
RRIRMRPPRLPRPRPRPNLIPRP | -0.0317
RRIRFRPPRLPRPRPRPEMEPRP | 0.252
RRIRMRPPRLPRPRPRPVKRPRP | -0.0121
RRIRVRPPRLPRPRPRPAMDPRP | 0.21
RRIRDRPPRLPRPRPRPVSQPRP | -0.0185
RRIRMRPPRLPRPRPRPCSNPRP | 0.0191
RRIRIRPPRLPRPRPRPWDMPRP | -0.00715
RRIRMRPPRLPRPRPRPHNGPRP | -0.337
RRIRARPPRLPRPRPRPLEWPRP | -0.0062
RRIRDRPPRLPRPRPRPMANPRP | -0.0338
RRIRSRPPRLPRPRPRPNDKPRP | -0.553
RRIRARPPRLPRPRPRPGMHPRP | 0.233
RRIRHRPPRLPRPRPRPPFIPRP | -0.483
RRIRARPPRLPRPRPRPSKNPRP | 0.235
RRIRNRPPRLPRPRPRPMSKPRP | -0.197
RRIRIRPPRLPRPRPRPAAPPRP | 0.47
RRIRCRPPRLPRPRPRPEFKPRP | 0.0244
RRIRHRPPRLPRPRPRPITNPRP | -1.23
RRIRWRPPRLPRPRPRPLAYPRP | 0.0203
RRIRGRPPRLPRPRPRPIFSPRP | 0.312
RRIRDRPPRLPRPRPRPHCSPRP | 0.0218
RRIRIRPPRLPRPRPRPESTPRP | -0.325
RRIRTRPPRLPRPRPRPATDPRP | 0.313
RRIRMRPPRLPRPRPRPHDRPRP | 0.0623

Sequence | shrunken log2 fold change
RRIRWRPPRLPRPRPRPHCQPRP | -0.102
RRIRSRPPRLPRPRPRPATNPRP | 0.0897
RRIRQRPPRLPRPRPRPKMEPRP | -0.0177
RRIRYRPPRLPRPRPRPDPFPRP | -0.206
RRIRMRPPRLPRPRPRPQIPPRP | -0.127
RRIRERPPRLPRPRPRPLENPRP | 0.0225
RRIRKRPPRLPRPRPRPDVRPRP | 0.0826
RRIRQRPPRLPRPRPRPLYCPRP | -0.672
RRIRMRPPRLPRPRPRPNTHPRP | 0.136
RRIRCRPPRLPRPRPRPLETPRP | -0.012
RRIRSRPPRLPRPRPRPAQIPRP | -0.0853
RRIRHRPPRLPRPRPRPFFEPRP | -0.0877
RRIRERPPRLPRPRPRPKTRPRP | -0.0349
RRIRSRPPRLPRPRPRPIHMPRP | -0.397
RRIRKRPPRLPRPRPRPDTNPRP | 0.335
RRIRTRPPRLPRPRPRPGQEPRP | -0.184
RRIRGRPPRLPRPRPRPHYRPRP | 0.231
RRIRHRPPRLPRPRPRPLFSPRP | -0.888
RRIRDRPPRLPRPRPRPWLYPRP | -0.68
RRIRQRPPRLPRPRPRPHKQPRP | -0.608
RRIRPRPPRLPRPRPRPGTEPRP | -0.0123
RRIRKRPPRLPRPRPRPAKDPRP | 0.247
RRIRMRPPRLPRPRPRPFSNPRP | -0.175
RRIRMRPPRLPRPRPRPECEPRP | 0.206
RRIRGRPPRLPRPRPRPVCCPRP | 0.957

Sequence | shrunken log2 fold change
RRIRPRPPRLPRPRPRPDTLPRP | -0.284
RRIRTRPPRLPRPRPRPAPDPRP | 0.15
RRIRDRPPRLPRPRPRPDTCPRP | 0.00173
RRIRTRPPRLPRPRPRPSMQPRP | -0.244
RRIRIRPPRLPRPRPRPEAWPRP | 0.033
RRIRVRPPRLPRPRPRPRPYPRP | 0.179
RRIRERPPRLPRPRPRPQYWPRP | -0.617
RRIRQRPPRLPRPRPRPTFDPRP | 0.168
RRIRCRPPRLPRPRPRPHHVPRP | 0.0159
RRIRVRPPRLPRPRPRPPREPRP | 0.267
RRIRSRPPRLPRPRPRPALMPRP | 0.323
RRIRQRPPRLPRPRPRPDMGPRP | 0.0191
RRIRDRPPRLPRPRPRPNGHPRP | -0.252
RRIRWRPPRLPRPRPRPVVHPRP | -0.102
RRIRYRPPRLPRPRPRPIILPRP | -0.605
RRIRLRPPRLPRPRPRPVCAPRP | 0.174
RRIRRRPPRLPRPRPRPMGYPRP | 0.0381
RRIRCRPPRLPRPRPRPRAMPRP | 0.914
RRIRSRPPRLPRPRPRPAVIPRP | -0.593
RRIRQRPPRLPRPRPRPHERPRP | 0.158
RRIRWRPPRLPRPRPRPNCEPRP | 0.0915
RRIRDRPPRLPRPRPRPPNFPRP | 0.0198
RRIRSRPPRLPRPRPRPIIFPRP | -0.35
RRIRFRPPRLPRPRPRPPQLPRP | 0.274
RRIRMRPPRLPRPRPRPENVPRP | -0.0285
